Experiment [1] addresses T1, human CD16A-Fc^48R/158V fusion protein (human, UniProt P08637 17-208, limits assumed).
T1 construct: Secreted soluble fusion made in HEK-293 cells; also called CD16-Fc; CD16A Fc-fusion protein; not shown: Fc portion of human IgG1
The experiment in a line: surface plasmon resonance. Background: SPR reads the build-up and loss of mass on a sensor chip optically.

Experiment [2] concerns the target T1, human CD16A-Fc^48R/158V fusion protein. The experiment in a line: SPR, kinetic and steady state analysis. The method, then:
(§1) The affinity constants (KD values) of the scFv were determined by SPR using the BIAcore 2000 biosensor system (Amersham-Pharmacia). The CD16A-Fc fusion protein and BSA used as a negative control were immobilized on the carboxymethyldextran-coated sensor chip CM5 using conventional NHS/EDC chemistry for the amine coupling procedure (BIAcore). Purified scFvs were diluted in HBS-EP buffer (BIAcore, Uppsala, Sweden). Binding data was generated by passing varying concentrations of the scFv antibodies (100 nM, 200 nM, 400 nM, 800 nM and 1600 nM) over the immobilized antigen. […] All SPR measurements were performed at a constant flow rate of 20 μL/min in HBS-EP buffer at 25° C. Each injected sample (100 μl) was in contact with antigen for 5 minutes. The dissociation was followed for 30 minutes. After each cycle, the surface of the sensor chip was flushed with HBS-EP buffer. Signals from the control channel coated with BSA were automatically subtracted. Kinetic constants were calculated according to the 1/1 Langmuir binding model using the BIAevaluation version 3.0 software (BIAcore).

Experiment [3] has the same target. Nature of the experiment: SPR, BIAcore 2000, antigen immobilized. The method, then:
as §1

Experiment [4] has the same target. The experiment in a line: SPR, steady state analysis (column Keq). The method, then:
as §1

Experiment [5] has the same target. The experiment in a line: SPR, BIAcore 2000, antigen immobilized, koff/kon. The method, then:
as §1

The target is the same in experiment [6]. Nature of the experiment: SPR, BIAcore 2000, CD16A-Fc immobilized on CM5, koff/kon. The method, then:
as §1

For experiment [7] the target is unchanged. Nature of the experiment: SPR, BIAcore 2000, CD16A-Fc immobilized on CM5, 1:1 Langmuir. The method, then: as §1
Another experiment concerns the target T2, CD16B-Fc^SH (human, UniProt O75015 17-200).
T2 construct: extracellular domain; not shown: Fc region carried by the pSEC plasmid
The experiment in a line: ELISA on 200 ng coated antigen; scFv, anti-His-HRP (1 µg/ml). The method, then:
(§2) FIG. 7: ELISA on different CD16 isoforms. […] An anti-NKp46 scFv used as a primary antibody acted as a negative control.
(§3) Detection of scFv bound to the recombinant proteins was carried out using an anti-His-HRP conjugate (1 μg/ml).
A general note: ELISA stands for enzyme-linked immunosorbent assay.

Another experiment deals with T3, CD16B-Fc^NA1 (human, UniProt O75015 17-200).
T3 construct: extracellular domain; not shown: Fc region carried by the pSEC plasmid
Described as above. The method, then: as §2, §3

In another experiment the target is T4, CD16B-Fc^NA2 (human, UniProt O75015 17-200).
T4 construct: extracellular domain; not shown: Fc region carried by the pSEC plasmid
Described as above. The method, then: as §2, §3

Experiment [8] deals with T5, NKp46-Fc (UniProt O76036 22-258, limits assumed).
T5 construct: Negative control protein; also called NKp46-Fc control protein; not shown: Fc part, not described
The experiment is described as above. The method, then:
as §2, §3

The target of experiment [9] is T6, commercially available recombinant CD16B (Allele NA-2; BSA free; RD Systems) (UniProt O75015 17-200, limits assumed).
T6 construct: also called recombinant CD16B-Fc
Nature of the experiment: ELISA on recombinant CD16B coated at 80 nM; scFv detected with anti-c-Myc-HRP (10 µg/ml). The method, then: (§4) FIG. 3: ELISA on recombinant CD16A-Fc and CD16B. Recombinant CD16A-Fc and CD16B proteins were coated at 80 nM in 0.1 M NaHCO₃, pH 8.8. Wells were blocked with PBS, 2% skimmed milk. The binding of the scFv to the recombinant proteins and to gp34-Fc (negative control) was detected using an anti-c-Myc-HRP conjugate (10 μg/ml). […] Coated recombinant CD16B was directly detected by staining with an anti-His-HRP (1 μg/mL) and coating of the Fc-Fusion proteins was tested by an anti-human IgG-HRP conjugate (0.5 μg/mL). As HRP-substrate, 50 μL of TMB were used. After termination of the reaction with 50 μL 0.5 M H₂SO₄, absorbance was measured at 450 nm.
(§5) In order to generate further supporting data concerning the CD16A specificity of the scFvs, an ELISA was performed using the CD16A-Fc fusion protein (Example 1) and commercially available recombinant CD16B-Fc (Allele NA-2; BSA free; RD Systems). A gp34-Fc fusion protein was used as a negative control. The recombinant proteins were coated overnight at a concentration of 80 nM in 100 mM NaHCO₃ at pH 8.8.
(§6) Detection of scFv bound to the recombinant proteins was carried out by using an anti-c-myc-HRP conjugate (10 μg/ml). […] Binding to the recombinant CD16B was tested by directly staining with anti-His-HRP (1 μg/mL) and binding to the Fc-Fusion proteins was tested by an anti-human IgG-HRP conjugate (0.15 μg/mL).

In experiment [10] the target is T7, native CD16B on human polymorphonuclear cells (neutrophilic granulocytes) (human, UniProt O75015 17-200).
T7 construct: whole, on cells; also called PMN; CD16B-positive granulocytes
Nature of the experiment: flow cytometry on freshly isolated PMN; scFv, anti-(His)6 MAb, FITC goat anti-mouse IgG; MFI minus secondary reagents alone. The method, then: Polymorphonuclear cells (PMN) and natural killer (NK) cells were isolated from peripheral blood from a healthy donor and used for flow cytometric staining and analysis. […] All scFv were used at a concentration of 50 μg/mL and were detected with 10 μg/mL anti-(His)₆ followed by 15 μg/mL FITC-conjugated goat anti-mouse IgG. The mean fluorescence intensities obtained from flow cytometric analysis were corrected by subtracting the fluorescence values from cell stainings with the secondary reagents alone and were plotted in the diagram.
Enrichment of NK cells was performed by negative selection as described above.
On the technique in general: In flow cytometry, cells or beads pass a laser one at a time.

The target in experiment [11] is T8, human CD16B (NA-2 allele) on stably transfected HEK-293 cells (293/CD16B) (human, UniProt O75015 17-200).
T8 construct: whole, on cells
Nature of the experiment: flow cytometry on 293/CD16B cells; scFv, anti-hexa His MAb 13/45/31-2, FITC goat anti-mouse IgG; MFI minus secondary reagents alone. The method, then:
(§7) The mean fluorescence intensities obtained from flow cytometric analysis were corrected by subtracting the fluorescence values from cell stainings with the secondary reagents alone, and plotted in the diagram.
(§8) For flow cytometric analysis, the following cell lines were used: BW and BW/CD16A transfectants were cultured as described previously. […] The transient transfections were performed using the calcium phosphate method as described in Example 1 and were used for flow cytometric staining and analysis two days after transient transfection. Flow cytometric staining and analysis was performed as essentially described before.

Experiment [12] deals with T9, NKp46 extracellular domain fused to zeta chain, on transiently transfected HEK-293 cells (293/NKp46) (human, UniProt O76036 22-258; P20963 31-164).
T9 construct: extracellular domain;domain: transmembrane and cytoplasmic domain; On the cell surface; also called NKp46-transfectants; pcDNA3-NKp46-zeta
Nature of the experiment: flow cytometry on 293/NKp46 cells; scFv, anti-hexa His MAb 13/45/31-2, FITC goat anti-mouse IgG; MFI minus secondary reagents alone. The method, then: as §7, §8

Experiment [13] deals with T5, NKp46-Fc. Nature of the experiment: Western blot on NKp46-Fc. The method, then:
For further characterization all of the anti-CD16A scFv were tested for binding in Western Blot on recombinant CD16A-Fc and NKp46-Fc.
The proteins were transferred on a nitrocellulose membrane by electroblotting. After staining with Ponceau S, the membrane was cut into strips of 5 mm width. Each nitrocellulose strip was individually incubated with scFv (4 μg/ml) in PBS, 0.1% tween, 2% skimmed milk. Detection was carried out with the anti-Penta His HRP-conjugate (1 μg/mL) using diaminobenzidine (DAB) as a peroxidase substrate. […] As an additional positive control, a goat anti-human IgG HRP-conjugate (0.16 μg/mL) was used for detection of the Fc portion of the fusion proteins.

Experiment [14] concerns the target T6, commercially available recombinant …. The experiment in a line: ELISA, recombinant CD16B coated at 80 nM. The method, then: as §4, §5, §6
In another experiment the target is T10, Streptavidin (UniProt P22629 37-163, limits assumed).
T10 construct: also called streptavidin alone
The experiment in a line: ELISA on coated streptavidin; periplasmic extract, anti-Penta His-HRP.

T1 sequence (P08637 17-208 L66R/F176V limits assumed): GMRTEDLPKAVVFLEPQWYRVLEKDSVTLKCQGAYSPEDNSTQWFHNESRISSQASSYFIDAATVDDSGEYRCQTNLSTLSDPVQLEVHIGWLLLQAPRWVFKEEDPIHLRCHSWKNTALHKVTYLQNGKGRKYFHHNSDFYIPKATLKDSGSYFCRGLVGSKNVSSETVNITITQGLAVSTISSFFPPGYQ
T5 sequence (O76036 22-258 limits assumed): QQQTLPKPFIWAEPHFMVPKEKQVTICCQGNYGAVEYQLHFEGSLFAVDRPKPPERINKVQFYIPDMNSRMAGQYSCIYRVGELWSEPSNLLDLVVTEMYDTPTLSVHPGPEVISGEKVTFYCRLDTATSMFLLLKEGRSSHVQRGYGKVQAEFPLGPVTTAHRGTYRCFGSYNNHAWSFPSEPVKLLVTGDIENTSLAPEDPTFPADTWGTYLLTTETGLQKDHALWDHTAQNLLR
T9 sequence (O76036 other isoform, or with tags, fused parts or gaps limits assumed): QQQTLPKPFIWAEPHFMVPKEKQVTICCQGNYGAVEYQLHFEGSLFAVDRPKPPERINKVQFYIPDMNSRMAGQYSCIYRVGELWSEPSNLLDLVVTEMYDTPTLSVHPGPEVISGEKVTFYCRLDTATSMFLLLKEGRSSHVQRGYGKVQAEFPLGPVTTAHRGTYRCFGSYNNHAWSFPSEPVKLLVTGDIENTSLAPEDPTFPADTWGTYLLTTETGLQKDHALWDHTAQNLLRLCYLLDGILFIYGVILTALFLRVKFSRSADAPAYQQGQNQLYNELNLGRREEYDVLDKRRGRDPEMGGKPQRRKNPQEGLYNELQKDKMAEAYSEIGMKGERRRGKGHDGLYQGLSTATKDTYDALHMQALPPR
T7 sequence (O75015 17-200): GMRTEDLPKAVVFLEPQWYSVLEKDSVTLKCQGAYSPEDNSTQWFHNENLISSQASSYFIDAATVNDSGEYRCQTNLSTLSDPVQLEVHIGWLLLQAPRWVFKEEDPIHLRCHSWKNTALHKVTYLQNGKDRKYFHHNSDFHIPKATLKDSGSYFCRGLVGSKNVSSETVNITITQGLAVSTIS
T6 sequence (O75015 17-200 N65S limits assumed): as the sequence (O75015 17-200) above, with N49S counted along it
T8 sequence (O75015 17-200 N65S): as the sequence (O75015 17-200) above, with N49S counted along it
T2 sequence (O75015 17-200 N65S/A78D): as the sequence (O75015 17-200) above, with N49S, A62D counted along it
T4 sequence (O75015 17-200 N65S): as the sequence (O75015 17-200) above, with N49S counted along it
T3 sequence (O75015 other isoform, or with tags, fused parts or gaps): as the sequence (O75015 17-200) above, with S20R, N66D, I90V counted along it
T10 sequence (P22629 37-163 limits assumed): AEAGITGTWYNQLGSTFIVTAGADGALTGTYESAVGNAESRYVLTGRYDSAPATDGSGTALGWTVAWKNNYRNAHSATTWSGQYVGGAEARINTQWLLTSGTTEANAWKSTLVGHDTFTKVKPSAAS

B1: affinity matured anti-CD16A scFv 4-LS21 (scFv)
scFv: EVQLVQSGAEVKKPGESLKVSCKASGYTFTSYYMHWVRQAPGQGLEWMGIINPSGGSTSYAQKFQGRVTMTRDTSTSTVYMELSSLRSEDTAVYYCARGSAYYYDFADYWGQGTLVTVSSGSASAPTLKLEEGEFSEARVQPVLTQPSSVSVAPGQTATISCGGHNIGSKNVHWYQQRPGQSPVLVIYQDNKRPSGIPERFSGSNSGNTATLTISGTQAMDEADYYCQVWDNYSVLFGGGTKLTVLGQPKAAPSVTLFPPSAAAGSEQKLISEEDLNSHHHHHH
notes: IMAC-purified from pSKK2
Usually Kd stands for a measure of binding affinity in units of concentration. By koff is commonly meant a measure of how fast the partners let go of each other. A lower koff goes with a long-lived complex. A word on the kon: it is the rate constant with which the complex forms. A low value points to slower complex formation. In the case of B1, the Kd in experiment [1] was around 50 nM; in experiment [4], 203 nM; in experiment [5] it was 61.7 nM; in experiment [6], 113 nM. Also, in [2], the “fold improvement of affinity over parental clone 50NI” value was above 20 fold. Moreover, the koff in experiment [3] turned out to be 0.00342 s⁻¹; in experiment [7], 0.0063 s⁻¹. Also, the on-rate (kon) in experiment [3] was determined as 55400 M⁻¹ s⁻¹; in experiment [7], 56000 M⁻¹ s⁻¹. Also, the binding result is on record as “no binding (tested: 4 µg/ml)” with CD16B-Fc^SH; “no binding (tested: 4 µg/ml)” in the experiment with CD16B-Fc^NA1; “no binding (tested: 4 µg/ml)” in the experiment with CD16B-Fc^NA2; “no binding (tested: 4 µg/ml)” with NKp46-Fc [8]; “no binding (tested: not given)” in experiment [9]; “no binding (tested: 50 µg/mL)” in [10]. Moreover, the binding result in [11] and in experiment [12] was “no binding (tested: 50 µg/mL)” throughout.

B2: human anti-CD16A scFv 50NI (scFv)
scFv: EVQLVQSGAEVKKPGESLKVSCKASGYTFTSYYMHWVRQAPGQGLEWMGIINPSGGSTSYAQKFQGRVTMTRDTSTSTVYMELSSLRSEDTAVYYCARGSAYYYDFADYWGQGTLVTVSSGSASAPTLKLEEGEFSEARVSYELMQPPSVSVSSGQTASIPCSGDKLEEKYVSWYQQRPGQSPVLVIYQDNKRPSGIPERFSGSNSGNTATLTISGTQAMDEADYYCQVWDNYSVLFGGGTKLTVLGQPKAAPSVTLFPPSAAAGSEQKLISEEDLNSHHHHHH
notes: also called clone 50NI; parental clone
B2: the binding result with NKp46-Fc [13] is “no binding (tested: 4 µg/ml)”; in experiment [14], “no binding”; with Streptavidin, “no binding”; in experiment [10], “no binding (tested: 50 µg/mL)”; in experiment [11], “no binding (tested: 50 µg/mL)”; in experiment [12], “no binding (tested: 50 µg/mL)”. In addition, the Kd in [4] came to 2560 nM; in [6], 1230 nM. This molecule displayed a koff in experiment [7] of 0.0217 s⁻¹. The kon in [7] stood at 17600 M⁻¹ s⁻¹.
